These results are taken from publication PMC10526137, “Development of a High-Accuracy, Low-Cost, and Portable Fluorometer with Smartphone Application for the Detection of Urinary Albumin towards the Early Screening of Chronic Kidney and Renal Diseases”.

The series concerns the target human serum albumin (HSA) (Homo sapiens, UniProt P02768 25-609). Briefly: graphene oxide fluorescence recovery (aptamer release from GO); GO-aptamer complex, PBS pH 7.4, HSA 0.001-1.5 mg/mL; LOD 0.203 ug/mL, no Kd; PBS pH 7.4, room temperature; 15 uL of 5 uM Cy5-H8 + 85 uL GO-PBS (15 uL of 5 mg/mL GO in 70 uL PBS) 5 min in the dark, then 100 uL HSA for 30 min; also artificial urine. Conditions: protein: commercial; label: 5'-Cy5.

human serum albumin (HSA), sequence (P02768 25-609): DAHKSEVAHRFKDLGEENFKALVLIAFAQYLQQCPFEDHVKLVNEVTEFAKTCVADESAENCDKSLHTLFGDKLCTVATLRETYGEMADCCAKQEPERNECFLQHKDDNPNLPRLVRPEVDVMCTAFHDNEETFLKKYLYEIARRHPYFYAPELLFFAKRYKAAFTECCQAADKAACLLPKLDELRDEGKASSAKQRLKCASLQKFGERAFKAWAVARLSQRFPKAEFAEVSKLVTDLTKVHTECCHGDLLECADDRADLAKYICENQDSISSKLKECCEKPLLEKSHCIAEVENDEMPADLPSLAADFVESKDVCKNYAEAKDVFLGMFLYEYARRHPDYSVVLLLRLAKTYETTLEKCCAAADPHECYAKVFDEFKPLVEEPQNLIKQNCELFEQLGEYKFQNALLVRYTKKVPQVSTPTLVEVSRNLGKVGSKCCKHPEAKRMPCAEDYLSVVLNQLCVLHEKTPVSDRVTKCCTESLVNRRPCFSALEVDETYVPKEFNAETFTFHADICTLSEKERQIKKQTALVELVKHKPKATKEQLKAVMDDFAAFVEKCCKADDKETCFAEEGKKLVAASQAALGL

B1: H8 albumin aptamer (ssDNA)
DNA: ATACCAGCTTATTCAATTCCCCCGGCTTTGGTTTAGAGGTAGTTGCTCATTACTTGTACGCTCCGGATGAGATAGTAAGTGCAATCT
B1: the binding result is listed as “binds”.
